Changes are numbered by the printed parent chain.
Experiments:
[1] = target: full length human ACVR1 (amino acids 1-509, R206H, of accession #Q04771) on HEK293/BRE-luc/hACVR1-R206H-clone H2 cells (human) (UniProt Q04771); assay: flow cytometry, secondary antibody alone on HEK293/hACVR1-R206H cells, 4C
[2] = target: full length human ACVR1 (amino acids 1-509, R206H, of accession #Q04771) on HEK293/BRE-luc/hACVR1-R206H-clone H2 cells (human) (UniProt Q04771); assay: flow cytometry, 70 nM antibody on HEK293/hACVR1-R206H cells, 4C
[3] = target: T1, dimeric human ACVR1 (human, UniProt Q04771 21-123, limits assumed); assay: SPR Biacore T200, mAb captured by anti-human Fab, 100 nM dimeric receptor injected, 25C
T1 construct: ACVR1'; also called Human Receptor ACVR1
T1 sequence (looked up): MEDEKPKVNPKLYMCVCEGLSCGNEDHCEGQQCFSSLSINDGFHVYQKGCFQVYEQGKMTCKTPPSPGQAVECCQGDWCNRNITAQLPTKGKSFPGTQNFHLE
Protocol: (§1) ACVR1 mAbs were tested for cross-reactivity to a panel of bone morphogenic protein type 1 receptors including human and mouse ACVR1, BMPR1A, and BMPR1B, as well as ACVRL1 on a Biacore T200 as follows. In order to measure the specificity of ACVR1 mAbs, ACVR1 mAbs were captured with anti-human Fab immobilized on a CM5 chip. 100 nM or 10 nM of dimeric human or mouse ACVR1, ACVRL1, BMPR1A or BMPR1B were injected at 30 μL/min for 2 min (duplicate injections) and the experiment was performed at 25° C. Binding of different receptors to the captured mAb was determined using Scrubber 2.0c software.

[4] = target: T2, dimeric human ACVRL1 (human, UniProt P37023 22-118, limits assumed); assay: as above
T2 construct: Construct and dimerising part not described; also called Human Receptor ACVRL1
T2 sequence (P37023 22-118 limits assumed): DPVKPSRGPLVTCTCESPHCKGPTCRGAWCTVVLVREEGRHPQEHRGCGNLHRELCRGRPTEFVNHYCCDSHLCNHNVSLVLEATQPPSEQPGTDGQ
Protocol: as §1

[5] = target: T3, dimeric human BMPR1A (human, UniProt P36894 24-152, limits assumed); assay: as above
T3 construct: Construct and dimerising part not described; also called Human Receptor BMPR1A
T3 sequence (P36894 24-152 limits assumed): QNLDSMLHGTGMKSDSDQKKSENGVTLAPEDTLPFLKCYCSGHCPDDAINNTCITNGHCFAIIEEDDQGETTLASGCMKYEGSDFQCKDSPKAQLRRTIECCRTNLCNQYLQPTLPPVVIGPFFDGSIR
Protocol: as §1

[6] = target: T4, dimeric human BMPR1B (human, UniProt O00238 14-126, limits assumed); assay: as above
T4 construct: Construct and dimerising part not described; also called Human Receptor BMPR1B
T4 sequence (looked up): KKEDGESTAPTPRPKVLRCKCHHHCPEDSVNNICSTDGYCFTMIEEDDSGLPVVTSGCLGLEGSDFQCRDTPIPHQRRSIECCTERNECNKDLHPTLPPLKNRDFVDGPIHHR
Protocol: as §1

[7] = target: T5, dimeric mouse ACVR1 (mouse, UniProt P37172 21-123, limits assumed); assay: as above
T5 construct: also called Mouse Receptor ACVR1
T5 sequence (looked up): T1 sequence (looked up) with M1V, P10Q
Protocol: as §1

[8] = target: T6, dimeric mouse ACVRL1 (mouse, UniProt Q61288 23-119, limits assumed); assay: as above
T6 construct: Construct and dimerising part not described; also called Mouse Receptor ACVRL1
T6 sequence (looked up): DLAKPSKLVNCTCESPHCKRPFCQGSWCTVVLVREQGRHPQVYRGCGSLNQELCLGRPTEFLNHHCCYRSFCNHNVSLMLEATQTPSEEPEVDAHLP
Protocol: as §1

[9] = target: T7, dimeric mouse BMPR1A (mouse, UniProt P36895 24-152, limits assumed); assay: as above
T7 construct: Construct and dimerising part not described; also called Mouse Receptor BMPR1A
T7 sequence (P36895 24-152 limits assumed): as the sequence (P36894 24-152 limits assumed) above, with S16L, S21P, A74T counted along it
Protocol: as §1

[10] = target: T8, dimeric mouse BMPR1B (mouse, UniProt P36898 14-126, limits assumed); assay: as above
T8 construct: Construct and dimerising part not described; also called Mouse Receptor BMPR1B
T8 sequence (looked up): T4 sequence (looked up) with V16I, L51M, N102D, R113K
Protocol: as §1

[11] = target: human ACVR1 extracellular domain expressed with a C-terminal myc-myc-hexahistidine tag (human); assay: BLI (Octet) cross-competition: hACVR1.mmh captured on anti-His biosensor, saturated with 1st mAb REGN 5166 (50 ug/mL), then dipped into 2nd mAb Isotype Control (50 ug/mL); white cell
[12] = target: human ACVR1 extracellular domain expressed with a C-terminal myc-myc-hexahistidine tag (human); assay: BLI (Octet) cross-competition: hACVR1.mmh captured on anti-His biosensor, saturated with 1st mAb REGN 5167 (50 ug/mL), then dipped into 2nd mAb Isotype Control (50 ug/mL); white cell
[13] = target: human ACVR1 extracellular domain expressed with a C-terminal myc-myc-hexahistidine tag (human); assay: BLI (Octet) cross-competition: hACVR1.mmh captured on anti-His biosensor, saturated with 1st mAb REGN 5168 (50 ug/mL), then dipped into 2nd mAb Isotype Control (50 ug/mL); white cell
[14] = target: human ACVR1 extracellular domain expressed with a C-terminal myc-myc-hexahistidine tag (human); assay: BLI (Octet) cross-competition: hACVR1.mmh captured on anti-His biosensor, first dipped into 1st mAb Isotype Control (50 ug/mL), then into 2nd mAb Isotype Control (50 ug/mL); dotted cell (self-self)
[15] = target: T9, human ACVR1 extracellular domain expressed with a C-terminal myc-myc-hexahistidine tag (human); assay: SPR, hACVR1.mmh captured by anti-myc antibody on CM5, Fab injected, 37C
T9 construct: also called hACVR1-mmh; hACVR1.mmh
T9 chain: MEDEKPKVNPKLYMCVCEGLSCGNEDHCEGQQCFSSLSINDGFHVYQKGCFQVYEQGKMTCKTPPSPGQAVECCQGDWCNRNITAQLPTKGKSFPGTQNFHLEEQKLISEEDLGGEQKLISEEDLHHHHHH
Protocol: (§2) In order to measure the binding constants of ACVR1 Fabs, hACVR1.mmh was captured with a myc antibody (REGN642) immobilized on a CM5 chip. Different concentrations of ACVR1 Fabs were injected over hACVR1.mmh at 37° C. Binding rate constants and equilibrium dissociation rate constants were calculated by fitting data using 1:1 Langmuir binding model (Scrubber 2.0c).

[16] = target: T10, mouse ACVR1 extracellular domain expressed with a C-terminal myc-myc-hexahistidine tag (mouse); assay: SPR, mACVR1.mmh captured by anti-myc antibody on CM5, Fab injected, 37C
T10 construct: also called mACVR1-mmh; mACVR1.mmh
T10 chain: T9 chain with M1V, P10Q
Protocol: as §2, with “mACVR1.mmh” for “hACVR1.mmh”, “(REGN 642)” for “(REGN642)”

Molecule: Alexa Fluor-647 conjugated secondary antibody (Jackson ImmunoResearch, anti-human #109-607-003)
- MFI-Normalized to Unstained Control [1]: 1 fold

Molecule: human IgG control antibody
- MFI-Normalized to Unstained Control [2]: 3 fold

Molecule: Isotype control (Example 4) (antibody)
- 100 nM Human Receptor Binding [3]: 11 RU
- 100 nM Human Receptor Binding [4]: 2 RU
- 100 nM Human Receptor Binding [5]: 1 RU
- 100 nM Human Receptor Binding [6]: 19 RU
- 100 nM Mouse Receptor Binding [7]: 8 RU
- 100 nM Mouse Receptor Binding [8]: 2 RU
- 100 nM Mouse Receptor Binding [9]: 7 RU
- 100 nM Mouse Receptor Binding [10]: 1 RU

Molecule: isotype-matched negative control (Example 5) (antibody)
- wavelength shift of 2nd mAb binding [11]: 0.05 nm
- wavelength shift of 2nd mAb binding [12]: 0.05 nm
- wavelength shift of 2nd mAb binding [13]: 0.04 nm
- wavelength shift of 2nd mAb binding [14]: 0.07 nm

B1: REGN 5166 Fab (Fab, V domains shown)
VH: QVQLVESGGGVVQPGRSLRLSCAASGFTFSAYWMHWVRQAPGKGLEWVAVISYDGSNKYYADSVKGRFTISRDHSKNTLYLQMNSLRAEDTAVYYCAKGDAYDSWRILLGGDYYGMDVWGQGTTVTVSS
VL: EIVLTQSPGTLSLSPGERATLSCRASQSVSSSYLAWYQQKPGQAPRPLIYGASSRATGIPDRFSGSGSGTDFTLTISRLEPEDFAVYYCQQGGDAPPYTFGGGTKVEIK
notes: also called ACVR1 Fab
- Kd [15]: 0.154 nM
- koff [15]: 0.000106 s⁻¹
- kon [15]: 690000 M⁻¹ s⁻¹
- t1/2 [15]: 1.82 h
- Kd [16]: 0.16 nM
- koff [16]: 0.000105 s⁻¹
- kon [16]: 653000 M⁻¹ s⁻¹
- t1/2 [16]: 1.83 h

B2: REGN 5167 Fab (Fab, V domains shown)
VH: QLQLQESGPGLVKPSETLSLTCTVSGGSITSSSYYWAWIRQPPGKGLEWIGKIYYSGSTHYNPSLKSRVTISVDTSKNQFSLKLSSVTAADTAVYYCARVGGHGYGDSAGLAFDIWGQGTMVTVSS
VL: EIVLTQSPGTLSLSPGERATLSCRASQSVSSAFLAWYQQKPGQAPRLLIYGASYRHTGIPDRFSGSGSGTDFTLTISRLEPEDFAVYYCQHYGVGPRTFGGGTKVEIK
notes: also called ACVR1 Fab
- Kd [15]: 0.17 nM
- koff [15]: 9.36e-05 s⁻¹
- kon [15]: 549000 M⁻¹ s⁻¹
- t1/2 [15]: 2.05 h
- Kd [16]: 0.178 nM
- koff [16]: 9.72e-05 s⁻¹
- kon [16]: 545000 M⁻¹ s⁻¹
- t1/2 [16]: 1.98 h

Reference: patent US20240150474A1 (Regeneron, published 2024)
